# In patent US20230414780A1 (VECT HORUS, published 2023):
# Positions count from the first letter of the chain named.
# B1: C5^V27 (VHH)
# VHH: EVQLVESGGGVVQPGGSLKLSCVASGADFSINYIRWYRQAPGKQREFVAGFTATGNTNYADSMKGRFTISRDNTKNAVYLQIDSLKPEDTAVYYCYMLDKWGQGTQVTVSS
# B2: C5^V29 (VHH)
# VHH: B1 VHH with Y33F, N56H
# B3: VHH A2 (C5^V2) (VHH)
# VHH: B1 VHH with A27T, D28A, Y33F
# B4: VHH A3 (C5^V3) (VHH)
# VHH: B1 VHH with A27T, Y33F, T54A
# B5: VHH A4 (C5^V4) (VHH)
# VHH: B1 VHH with A27T, Y33F, N56A
# B6: VHH A9 (C5^V9) (VHH)
# VHH: B1 VHH with A27T, Y33F, K100A
# B7: VHH A11 (C5^V11) (VHH)
# VHH: B1 VHH with A27T
# B8: VHH A15 (C5^V15) (VHH)
# VHH: B1 VHH with A27T, Y33F, Y96F
# B9: B8^V3 (VHH)
# VHH: EVQLVESGGGVVQPGGSLRLSCAASGEIFSINFMRWYREAPGKQREWVAGFTRDGSTNYPDSAKGRFTISRDNAKNTVYLQIDSLKPEDTAVYYCYMLDTWGQGTQVTVSS
# B10: H1 (VHH)
# VHH: EVQLVESGGGLVQPGGSLRLSCAASGFASHLYAIGWFRQAPGKEREKVSCISSNDGSTYYADSVKGRFTISRDTVKDMVYLQMNSLKPEDTAVYYCATDLTVHCFMAEYDWWGQGTQVTVSS
# notes: also called phage-H1 (as tracer)
# B11: B8-siSOD1m (VHH)
# VHH: B9 VHH with E39Q
# modifications: conjugated to the siSOD1m siRNA duplex through a linker; site and tag not given for this conjugate ; VHH conjugated through a C-terminal tag and a stable click linker to the 3' end of the sense strand of the siSOD1m siRNA duplex (SEQ ID NO 465/466). The letters cannot carry this.
# notes: Member of the group m173; not shown: C-terminal tag/linker that carries the siRNA
# B12: B8h1-siSOD1m (VHH)
# VHH: B9 VHH with E39Q, Q44G, R45L, A63V, I82M, D83N, K86R
# modifications: chain 1 pos 125: Gln of the LQR Q-tag carrying the transglutaminase-installed azido linker clicked to the 3' end of the sense strand of the chemically modified siSOD1m duplex (SEQ ID NOs 465/466), written Q
# notes: Member of the group m173
# B13: C5-siSOD1m (VHH)
# VHH: B1 VHH with A27T, Y33F
# modifications: chain 1 pos 125: Gln of the LQR Q-tag carrying the transglutaminase-installed azido linker clicked to the 3' end of the sense strand of the chemically modified siSOD1m duplex (SEQ ID NOs 465/466, no 5'VP), written Q
# notes: Member of the group m173; siRNA without 5'VP, so not the same as m166
# B14: C5-Thiol-Mal-siSOD1m (VHH)
# VHH: B1 VHH with A27T, Y33F
# modifications: chain 1 pos 117: free Cys of the tag coupled by thiol-maleimide chemistry to the maleimide-functionalised siSOD1m duplex (SEQ ID NOs 465/466), written C
# notes: Member of the group m173; also called VHH-thiol-Mal-siSOD1m wherein VHH is C5
# B15: C5-ΔHis-siSOD1m (VHH)
# VHH: B1 VHH with A27T, Y33F
# modifications: conjugated to the siSOD1m siRNA duplex through a linker; site and tag not given for this conjugate ; Conjugated at a C-terminal tag (not given) through a linker to the chemically modified siSOD1m duplex (SEQ ID NOs 465/466).
# notes: Member of the group m173; also called VHH-deltaHis-siSOD1m wherein VHH is C5; not shown: The C-terminal conjugation tag of the 'ΔHis' form, which the text never defines
# B16: C5V1-siSOD1m (VHH)
# VHH: B1 VHH with Y33F
# modifications: conjugated to the siSOD1m siRNA duplex through a linker; site and tag not given for this conjugate ; VHH conjugated through a C-terminal tag and a stable click linker to the 3' end of the sense strand of the siSOD1m siRNA duplex (SEQ ID NO 465/466). The letters cannot carry this.
# notes: as for B11
# B17: C5V7-siSOD1m (VHH)
# VHH: B1 VHH with A27T, Y33F, L98A
# modifications: conjugated to the siSOD1m siRNA duplex through a linker; site and tag not given for this conjugate ; VHH conjugated through a C-terminal tag and a stable click linker to the 3' end of the sense strand of the siSOD1m siRNA duplex (SEQ ID NO 465/466). The letters cannot carry this.
# notes: as for B11
# B18: C5V13-siSOD1m (VHH)
# VHH: B1 VHH with A27T, Y33F, T52S
# modifications: conjugated to the siSOD1m siRNA duplex through a linker; site and tag not given for this conjugate ; VHH conjugated through a C-terminal tag and a stable click linker to the 3' end of the sense strand of the siSOD1m siRNA duplex (SEQ ID NO 465/466). The letters cannot carry this.
# notes: as for B11
# B19: C5h18-siSOD1m (VHH)
# VHH: EVQLVESGGGVVQPGGSLKLSCVASGTDFSINFIRWYRQAPGKGLEFVAGFTATGNTNYADSVKGRFTISRDNAKNTLYLQMNSLRPEDTAVYYCYMLDKWGQGTQVTVSS
# modifications: conjugated to the siSOD1m siRNA duplex through a linker; site and tag not given for this conjugate ; VHH conjugated through a C-terminal tag and a stable click linker to the 3' end of the sense strand of the siSOD1m siRNA duplex (SEQ ID NO 465/466). The letters cannot carry this.
# notes: as for B11
# B20: C5h19-siSOD1m (VHH)
# VHH: B19 VHH with K19R, V23A, G44Q, L45R
# modifications: conjugated to the siSOD1m siRNA duplex through a linker; site and tag not given for this conjugate ; VHH conjugated through a C-terminal tag and a stable click linker to the 3' end of the sense strand of the siSOD1m siRNA duplex (SEQ ID NO 465/466). The letters cannot carry this.
# notes: as for B11
# Biological target: T1, mouse TfR ectodomain fused to a mouse IgG1 Fc fragment (mouse, UniProt Q62351 89-763)
# T1 construct: extracellular domain; not shown: mouse IgG1 Fc fragment
# Experiment: SPR, at equilibrium
# Method: (§1) Binding properties of some VHHs were also evaluated using Surface Plasmon Resonance (SPR) experiments. The human, mouse and rhesus monkey TfR (having respectively GeneBank number NM_003234.2, NM_011638, NC_041755.1) ectodomains were fused to the N-terminal end of a mouse IgG1 Fc fragment and the recombinant proteins were produced and purified in-house. Interaction of VHHs with the receptors was tested using a Biacore T200 (GE Healthcare). Receptors were immobilized on an HC 1500M or a CM5 sensor chip (Xantec) either directly or on an anti-mouse IgG previously immobilized. VHHs were injected over flowcell by using the single-cycle kinetic or the multiple-cycle kinetic methods.
# T1 sequence (Q62351 89-763): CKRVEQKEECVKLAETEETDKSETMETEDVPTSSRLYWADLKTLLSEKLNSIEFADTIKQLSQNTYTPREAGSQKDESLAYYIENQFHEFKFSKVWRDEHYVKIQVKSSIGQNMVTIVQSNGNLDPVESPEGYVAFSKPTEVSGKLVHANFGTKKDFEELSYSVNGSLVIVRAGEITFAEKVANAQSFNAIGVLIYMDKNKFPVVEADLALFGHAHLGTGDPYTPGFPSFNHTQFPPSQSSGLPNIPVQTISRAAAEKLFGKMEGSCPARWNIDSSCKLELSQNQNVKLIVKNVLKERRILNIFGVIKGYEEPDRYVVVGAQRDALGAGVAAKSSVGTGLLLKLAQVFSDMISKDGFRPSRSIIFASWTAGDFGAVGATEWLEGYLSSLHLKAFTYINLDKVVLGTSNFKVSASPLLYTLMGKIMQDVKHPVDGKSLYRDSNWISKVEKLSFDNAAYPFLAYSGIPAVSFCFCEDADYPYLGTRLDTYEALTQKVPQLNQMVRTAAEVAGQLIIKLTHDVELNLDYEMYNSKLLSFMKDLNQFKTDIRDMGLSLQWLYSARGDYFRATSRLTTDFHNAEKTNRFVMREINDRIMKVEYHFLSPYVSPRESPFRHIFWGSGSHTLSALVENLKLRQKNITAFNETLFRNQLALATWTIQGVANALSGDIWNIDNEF
row,Binder,Kd [nM]
1,B1,379
2,B2,240
3,B3,108
4,B4,98.8
5,B5,91.8
6,B6,40.5
7,B7,74.7
8,B8,61.1
9,B9,206

# Biological target: T2, human TfR ectodomain fused to a mouse IgG1 Fc fragment (human, UniProt P02786 89-760)
# T2 construct: extracellular domain; ectodomain fused to the N-terminal end of the Fc, made in-house; not shown: mouse IgG1 Fc fragment
# Experiment: SPR, at equilibrium
# Method: as §1
# T2 sequence (P02786 89-760): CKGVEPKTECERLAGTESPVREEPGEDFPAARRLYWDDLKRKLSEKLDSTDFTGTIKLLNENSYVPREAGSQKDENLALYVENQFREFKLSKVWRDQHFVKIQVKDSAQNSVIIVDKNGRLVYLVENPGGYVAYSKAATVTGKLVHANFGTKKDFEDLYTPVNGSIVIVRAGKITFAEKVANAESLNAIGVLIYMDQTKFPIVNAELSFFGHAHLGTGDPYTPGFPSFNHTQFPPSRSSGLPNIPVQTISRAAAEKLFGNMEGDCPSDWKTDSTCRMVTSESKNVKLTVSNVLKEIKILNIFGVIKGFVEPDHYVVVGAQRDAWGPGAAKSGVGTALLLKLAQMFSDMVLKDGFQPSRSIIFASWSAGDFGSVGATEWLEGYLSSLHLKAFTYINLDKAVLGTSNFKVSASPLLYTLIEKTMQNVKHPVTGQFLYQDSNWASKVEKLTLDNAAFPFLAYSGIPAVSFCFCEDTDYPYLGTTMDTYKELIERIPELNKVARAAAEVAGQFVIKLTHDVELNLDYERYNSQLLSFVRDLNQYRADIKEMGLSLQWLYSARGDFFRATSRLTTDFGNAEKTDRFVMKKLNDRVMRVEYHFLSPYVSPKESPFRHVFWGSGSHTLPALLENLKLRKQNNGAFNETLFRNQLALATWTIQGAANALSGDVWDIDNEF
row,Binder,Kd [nM]
1,B10,224

# Biological target: T3, rhesus monkey TfR ectodomain fused to a mouse IgG1 Fc fragment (rhesus monkey, UniProt I0FKY7 89-760)
# T3 construct: extracellular domain; not shown: mouse IgG1 Fc fragment
# Experiment: SPR, at equilibrium
# Method: as §1
row,Binder,Kd [nM]
1,B10,27.8

# Biological target: T1, mouse TfR ectodomain fused to a mouse …
# Experiment: SPR, kinetic
# How it was run: (§2)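 TfR–mouse Fc fusions, produced in-house, captured on HC 1500M or CM5 chips either directly or via immobilized anti-mouse IgG. VHHs injected in single-cycle or multiple-cycle kinetic mode on Biacore T200.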
Binder,Kd [nM],koff [s⁻¹],kon [M⁻¹ s⁻¹]
B1,207,0.102,493000
B2,143,0.0675,472000
B3,109,0.0579,583000
B4,83.5,0.0467,647000
B5,89.7,0.0532,652000
B6,40.8,0.0197,524000
B7,61.3,0.0218,355000
B8,70.6,0.0563,797000
B9,193,0.0343,178000

# Biological target: T2, human TfR ectodomain fused to a mouse …
# Experiment: SPR, kinetic
# How it was run: as §2
Binder,Kd [nM],koff [s⁻¹],kon [M⁻¹ s⁻¹]
B2,0.846,0.000982,1.17e+06
B7,0.395,0.000311,790000
B8,0.252,0.000176,700000
B9,0.505,3.38e-05,66900
B10,57.7,0.00554,108000

# Biological target: T3, rhesus monkey TfR ectodomain fused to a …
# Experiment: SPR, kinetic
# How it was run: as §2
Binder,Kd [nM],koff [s⁻¹],kon [M⁻¹ s⁻¹]
B1,83.9,0.0278,332000
B10,22.2,0.0109,662000

# Biological target: T4, human transferrin receptor (hTfR) fused to EGFP, on CHO cells (human, UniProt P02786 1-760)
# T4 construct: whole, on cells; also called human TfR; CHO-hTfR-EGFP; not shown: EGFP from pEGFP-C1 vector, fused to the N-terminal (intracellular) end of hTfR
# Experiment: apparent Kd, flow cytometry, CHO cells
# How it was run: (§3)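 CHO cells expressing TfR-EGFP fusions, blocked in PBS/BSA 2%, then incubated with increasing VHH concentrations for 1 hr at 4° C. Bound VHH detected via anti-6His antibody and Alexa647 secondary, cells PFA-fixed, read by flow cytometry. Apparent Kd from nonlinear fit.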
# T4 sequence (P02786 whole entry, the tested form may be a part): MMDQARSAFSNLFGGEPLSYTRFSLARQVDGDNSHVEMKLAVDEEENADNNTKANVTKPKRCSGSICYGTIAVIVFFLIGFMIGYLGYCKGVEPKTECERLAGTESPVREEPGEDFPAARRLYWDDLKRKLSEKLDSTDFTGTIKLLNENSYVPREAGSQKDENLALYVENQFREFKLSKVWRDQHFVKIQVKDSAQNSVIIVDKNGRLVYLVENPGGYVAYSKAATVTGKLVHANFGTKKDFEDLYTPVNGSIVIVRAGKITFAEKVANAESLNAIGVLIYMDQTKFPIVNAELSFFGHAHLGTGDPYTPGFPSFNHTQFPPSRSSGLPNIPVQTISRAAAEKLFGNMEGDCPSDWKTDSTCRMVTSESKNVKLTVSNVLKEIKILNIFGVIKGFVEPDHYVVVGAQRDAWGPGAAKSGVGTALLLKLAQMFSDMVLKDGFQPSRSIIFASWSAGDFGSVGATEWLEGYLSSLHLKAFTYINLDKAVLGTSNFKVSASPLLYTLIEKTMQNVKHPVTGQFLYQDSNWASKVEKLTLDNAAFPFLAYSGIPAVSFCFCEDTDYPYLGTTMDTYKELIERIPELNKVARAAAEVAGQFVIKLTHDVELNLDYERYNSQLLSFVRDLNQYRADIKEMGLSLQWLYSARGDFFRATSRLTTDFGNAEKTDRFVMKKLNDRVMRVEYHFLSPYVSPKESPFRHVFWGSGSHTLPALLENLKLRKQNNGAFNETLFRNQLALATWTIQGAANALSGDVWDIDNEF
row,Binder,Kd [nM]
1,B1,3.1
2,B2,2.9
3,B3,3.2
4,B5,3.1
5,B6,3.4
6,B7,3.4
7,B8,3.7
8,B9,36
9,B10,11

# Biological target: T5, mouse transferrin receptor (mTfR) fused to EGFP, on CHO cells (mouse, UniProt Q62351 1-763)
# T5 construct: whole, on cells; also called mouse TfR; CHO-mTfR-EGFP; not shown: EGFP
# Experiment: apparent Kd, flow cytometry, CHO cells
# How it was run: as §3
# T5 sequence (Q62351 whole entry, the tested form may be a part): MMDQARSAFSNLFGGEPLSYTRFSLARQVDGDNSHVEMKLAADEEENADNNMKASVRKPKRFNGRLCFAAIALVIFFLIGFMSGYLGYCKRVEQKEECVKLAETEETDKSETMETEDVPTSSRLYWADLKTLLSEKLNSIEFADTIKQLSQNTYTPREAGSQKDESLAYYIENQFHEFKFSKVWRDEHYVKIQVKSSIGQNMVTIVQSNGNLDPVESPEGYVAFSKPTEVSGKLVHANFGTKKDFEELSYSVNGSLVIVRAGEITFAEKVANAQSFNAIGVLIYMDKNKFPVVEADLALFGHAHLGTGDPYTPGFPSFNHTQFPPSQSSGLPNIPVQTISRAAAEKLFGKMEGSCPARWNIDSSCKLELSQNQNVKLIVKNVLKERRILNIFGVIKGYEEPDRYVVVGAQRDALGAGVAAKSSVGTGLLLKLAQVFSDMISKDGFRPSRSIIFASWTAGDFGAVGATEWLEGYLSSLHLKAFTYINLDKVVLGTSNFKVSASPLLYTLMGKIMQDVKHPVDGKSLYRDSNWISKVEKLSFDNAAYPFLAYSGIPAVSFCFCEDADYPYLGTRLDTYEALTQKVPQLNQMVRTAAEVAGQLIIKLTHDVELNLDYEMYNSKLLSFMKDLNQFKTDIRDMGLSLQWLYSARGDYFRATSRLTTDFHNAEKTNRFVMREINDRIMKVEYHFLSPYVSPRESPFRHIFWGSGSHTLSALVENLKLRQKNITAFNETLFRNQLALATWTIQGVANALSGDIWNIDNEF
row,Binder,Kd [nM]
1,B1,197
2,B2,207
3,B3,136
4,B4,138
5,B5,179
6,B6,47
7,B7,197
8,B8,207
9,B9,52

# Biological target: T6, rhesus monkey transferrin receptor (rhTfR) fused to EGFP, on CHO cells (rhesus monkey)
# T6 construct: whole, on cells; also called rhesus monkey TfR
# Experiment: apparent Kd, flow cytometry, CHO cells
# How it was run: as §3
row,Binder,Kd [nM]
1,B1,178
2,B2,66
3,B3,5.7
4,B4,7
5,B5,3.4
6,B6,4.6
7,B7,20
8,B8,10
9,B9,19
10,B10,3.7

# Biological target: T7, murine TfR expressed by murine neuroblastoma Neuro-2a cells (mouse, UniProt Q62351 1-763)
# T7 construct: whole, on cells; also called mTfR (N2a cells)
# Experiment: competition with the fluorescent reference VHH on Neuro-2a cells as in FIG. 25; Ki/app on mTfR
# Method: The binding of VHH-Oligo and VHH-hFc-Oligo conjugates to mTfR was evaluated using a competition assay on living cells expressing the receptor of interest, namely murine neuroblastoma Neuro-2a cells (N2a). N2a cells were grown in Dulbecco's Modified Eagle Medium (DMEM) GlutaMAX supplemented with 10% v/v FBS in 5% CO₂ at 37° C. Cells were seeded two days before experiments in 96-well plates at a density of 50.000 cells/well. […] Resuspended cells were transferred in a 96-deepwell plate (V-bottom) containing 1% fetal bovine serum (FBS)/0.02% sodium azide in phosphate-buffered saline (PBS) and then centrifuged for 5 min at 2000 rpm at 4° C. After removing the supernatant, 5 mM EDTA in D-PBS and 4% paraformaldehyde (PFA) (v/v 1:1) were added into wells to fix cells for 15 min at room temperature. PFA was removed by centrifugation (5 min, 3000 rpm, 4° C.) and cells were resuspended with 5 mM EDTA in D-PBS. Then the cellular A680-associated fluorescence signal was quantified using an Attune™ NxT flow cytometer (Thermo Fisher Scientific) equipped with Attune™ NxT v3.1.2. Experimental data (experimental triplicates) were fitted with GraphPad Prism® software using a nonlinear fit to determine the apparent Ki inhibition constants.
# T7 sequence (Q62351 whole entry): as the sequence (Q62351 whole entry, the tested form may be a part) above
row,Binder,Ki [nM]
1,B11,48.8
2,B12,76.1
3,B13,161
4,B14,164
5,B15,137
6,B16,224
7,B17,10100
8,B18,512
9,B19,1070
10,B20,2630

# Biological target: T5, mouse transferrin receptor (mTfR) fused …
# Experiment: flow cytometry, CHO cells
# Method: The binding properties of VHHs with affinity for the TfR from different species (i.e., human (h), mouse (m) and rhesus monkey (rh)) were tested using flow cytometry, and apparent affinities (Kd app) were determined. All experiments were performed in 96 well plates using 2×10⁵ cells/well, at 4° C. with shaking. CHO cell lines expressing the hTfR, mTfR or rhTfR fused to EGFP were saturated with PBS/BSA 2% solution during 30 min to avoid nonspecific binding, followed by incubation with purified VHHs at increasing concentrations for 1 hr. After one wash in PBS/BSA 2%, cells were incubated for 1 hr with an anti-6His tag antibody (mouse), washed twice with PBS/BSA 2%, and incubated for 1 hr with an Alexa647-conjugated anti-mouse secondary antibody. After two last washes in PBS/BSA 2%, cells were fixed by incubation for 15 min with PBS/PFA 2%, washed once with PBS and finally resuspended in PBS. Fluorescence levels were assessed using an Attune NxT flow cytometer (Thermo Fisher Scientific). Experimental data were fitted with GraphPad Prism® software using a nonlinear fit to determine the apparent Kd constants. […] Table 5 hereafter summarizes apparent Kd obtained for the tested VHHs.
row,Binder,binding result
1,B10,no binding
